Earlier results on two substances are cited in PMC8801382.

As a reminder, the Kd is the concentration at which binding is half-saturated.

For data set [1], the target named is beta-globin (Homo sapiens) (UniProt P68871).
The target in data set [2] is alpha-globin (Homo sapiens) (UniProt P69905).

UniProt P68871, sequence (P68871 2-147): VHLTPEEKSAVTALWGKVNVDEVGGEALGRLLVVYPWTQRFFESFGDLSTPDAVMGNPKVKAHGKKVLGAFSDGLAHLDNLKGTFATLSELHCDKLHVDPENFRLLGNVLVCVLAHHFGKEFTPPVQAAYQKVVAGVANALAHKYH

For the substance alpha-globin (from UniProt P69905), the dissociation constant (Kd) in data set [1] was 0.001 nM.

For AHSP (from UniProt Q9NZD4), the Kd in data set [2] was 17 nM.
